Data published in patent US20220107306A1.

B1: anti-HER2-VHH antibody (SH group-containing VHH antibody that recognizes HER2 antigen), bound to the surface of PID-T (VHH)
VHH: EVQLVESGGGLVQAGGSLRLSCAASGITFSINTMGWYRQAPGKQRELVALISSIGDTYYADSVKGRFTISRDNAKNTVYLQMNSLKPEDTAVYYCKRFRTAQGTDYWGQGTQVTVSS
modifications: C-terminal cysteine of the linker reduced with DTT to a free SH group and coupled to the maleimide group of TAMRA-encapsulating silica nanoparticles (PID-T)

Tests used:
[1] = system: rabbit IgG (anti-PD-L1 rabbit monoclonal antibody clone SP142) (Oryctolagus cuniculus); settings: 5' SH (reduced disulfide), coupled to maleimide-PEG nanoparticle; secondary staining of SP142 rabbit mAb on NCI-H446 section; 0.05 nM aptamer-nanoparticle, PBS 1% BSA, RT 3 h
[2] = molecular target: Recombinant human HER2 protein (E27-11G-10/Signal Chem) (human) (UniProt P04626); test: sandwich ELISA: HER2 captured by antibody 6C2, detected with 0.67 nM antibody-coated PID-T particles, after lyophilizing
[3] = molecular target: Recombinant human HER2 protein (E27-11G-10/Signal Chem) (human) (UniProt P04626); test: sandwich ELISA: HER2 captured by antibody 6C2, detected with 0.67 nM antibody-coated PID-T particles, before lyophilizing
[4] = molecular target: Recombinant human PDL1 protein (BioVision/7429-50) (human) (UniProt Q9NZQ7); test: sandwich ELISA: PDL1 captured by antibody 28-8, detected with antibody-coated PID particles, before lyophilizing
UniProt Q9NZQ7, sequence (Q9NZQ7 19-238 limits assumed): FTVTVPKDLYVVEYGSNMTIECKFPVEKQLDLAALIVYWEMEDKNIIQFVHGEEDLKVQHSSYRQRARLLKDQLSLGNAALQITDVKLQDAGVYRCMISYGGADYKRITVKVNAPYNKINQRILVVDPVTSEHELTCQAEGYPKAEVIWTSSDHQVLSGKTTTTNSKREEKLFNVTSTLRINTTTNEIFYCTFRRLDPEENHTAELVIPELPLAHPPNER

[5] = molecular target: Recombinant human PDL1 protein (BioVision/7429-50) (human) (UniProt Q9NZQ7); test: sandwich ELISA: PDL1 captured by antibody 28-8, detected with antibody-coated PID particles, after lyophilizing

Row | Molecule | binding (bright spots per cell) [1] | Fluorescence intensity (PFU), after lyophilizing [2] | Fluorescence intensity (PFU), before lyophilizing [3] | Fluorescence intensity (PFU), before lyophilizing [4] | Fluorescence intensity (PFU), after lyophilizing [5]
1 | GGGAGAAUUCCGACCAGAAGUUCGAUACGCCGUGGGGUGACGUUGGCUACCCUUUCCUCUCUCCUCCUUCUUCU [rabbit IgG RNA aptamer (74 mer)] | 605 | – | – | – | –
2 | anti-HER2-Fab antibody prepared from the anti-HER2-whole antibody (Abcam EP1045Y), bound to the surface of PID-T | – | 18000 PFU | 41000 PFU | – | –
3 | anti-HER2-whole antibody (Abcam, product code EP1045Y), bound to the surface of PID-T | – | 15000 PFU | 33000 PFU | – | –
4 | anti-PDL1-recombinant antibody (clone E1L3N/Cell Signaling Technology), bound to the surface of PID-P | – | – | – | 17000 PFU | 5500 PFU
5 | B1 | – | 49000 PFU | 51000 PFU | – | –
